From the supplement of paper PMC10567573

B1: RAB11B (parent)
chain: AVPTDEARAFAEKNNLSFIETSAL

Variants of: B1
Assay: protein stability index of a GFP-peptide fusion (GPS, HEK-293T) (PSI 1-6); higher = more stable
Settings: c terminus: a fixed tail appended
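Note: lentivirally expressed fusions sorted by FACS into six bins by GFP to DsRed ratio, PSI derived from sequencing read proportions per bin multiplied by bin number.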

Protein stability index of substitutions, site by site:
E6: C 2.46, Y 1.67, I 2.71, L 2.32, V 2.08, G 2.58, R 1.86, K 2.04, N 2.25, M 2.19, A 2.45, P 2.93, Q 2.24, H 2.61, T 2, W 2.04, S 2.2, F 1.66, D 2.95
D5: E 2.82, K 1.41, A 2.31, F 2.17, W 1.38, P 1.89, I 2.15, S 2.33, Q 2.42, V 1.99, M 2.07, Y 2.08, T 2.13, H 2.61, G 2.31, L 2.46, N 1.92, C 2.82, R 2.07
A1: V 2.62, M 2.64, E 3.65, R 2.26, D 2.95, T 2.74, L 2.67, S 2.65, Y 2.69, H 2.9, I 2.07, F 2.66, W 2.26, C 2.43, N 2.88, Q 2.63, P 3.02, G 3.06, K 2.57
T4: I 2.77, N 2.65, R 1.77, Q 3.05, H 2.5, V 2.78, L 2.33, A 2.45, F 2, Y 2.37, G 3.17, C 2.78, S 2.6, E 3.23, D 3.63, P 2.5, W 2.21, M 1.98, K 2
V2: W 2.52, K 2.52, L 3.28, F 2.64, Y 2.52, G 2.74, Q 2.34, N 3.85, E 3.96, C 3.02, R 2.35, M 3.41, S 3.09, P 3.2, A 2.55, T 2.62, I 2.74, D 3.41, H 3.86
A9: T 3.02, N 2.52, C 2.49, W 1.78, R 2.32, F 2.63, Q 3.14, E 3.82, S 2.33, Y 2.48, P 2.44, I 2.45, K 1.91, D 3.4, G 2.85, V 2.71, L 2.98, M 2.79, H 2.07
A7: T 3.17, I 2.39, K 2.5, P 2.86, E 2.92, M 2.27, N 3.1, H 2.23, L 2.16, S 2.79, V 2.7, R 2.6, Y 2.94, C 2.47, Q 3.46, G 3.14, F 1.98, D 4.09, W 2.58
R8: T 2.67, C 2.78, H 2.99, F 2.69, Y 3.12, N 3.06, K 3.08, L 2.33, Q 2.45, P 2.65, V 3.04, D 3.37, G 3.22, E 3.31, I 2.9, M 2.45, S 2.46, A 2.77, W 2.94
P3: W 2.91, S 2.57, E 3.33, G 2.92, Y 2.55, D 3.28, T 3.17, Q 3.16, L 2.28, N 3.27, F 1.96, R 2.1, V 3.05, A 2.93, C 2.77
